Measured values: article PMC8357123, “Modeling of DNA binding to the condensin hinge domain using molecular dynamics simulations guided by atomic force microscopy” (PLoS Computational Biology, 2021)

Target: T1, Smc4 (S. cerevisiae (budding yeast), UniProt Q12267 1-1418)
T1 construct: Smc4, subunit of the budding yeast condensin complex; The holo-complex was purified over HisTrap and Strep-Tactin; also called condensin subunit Smc4
T1 sequence (looked up): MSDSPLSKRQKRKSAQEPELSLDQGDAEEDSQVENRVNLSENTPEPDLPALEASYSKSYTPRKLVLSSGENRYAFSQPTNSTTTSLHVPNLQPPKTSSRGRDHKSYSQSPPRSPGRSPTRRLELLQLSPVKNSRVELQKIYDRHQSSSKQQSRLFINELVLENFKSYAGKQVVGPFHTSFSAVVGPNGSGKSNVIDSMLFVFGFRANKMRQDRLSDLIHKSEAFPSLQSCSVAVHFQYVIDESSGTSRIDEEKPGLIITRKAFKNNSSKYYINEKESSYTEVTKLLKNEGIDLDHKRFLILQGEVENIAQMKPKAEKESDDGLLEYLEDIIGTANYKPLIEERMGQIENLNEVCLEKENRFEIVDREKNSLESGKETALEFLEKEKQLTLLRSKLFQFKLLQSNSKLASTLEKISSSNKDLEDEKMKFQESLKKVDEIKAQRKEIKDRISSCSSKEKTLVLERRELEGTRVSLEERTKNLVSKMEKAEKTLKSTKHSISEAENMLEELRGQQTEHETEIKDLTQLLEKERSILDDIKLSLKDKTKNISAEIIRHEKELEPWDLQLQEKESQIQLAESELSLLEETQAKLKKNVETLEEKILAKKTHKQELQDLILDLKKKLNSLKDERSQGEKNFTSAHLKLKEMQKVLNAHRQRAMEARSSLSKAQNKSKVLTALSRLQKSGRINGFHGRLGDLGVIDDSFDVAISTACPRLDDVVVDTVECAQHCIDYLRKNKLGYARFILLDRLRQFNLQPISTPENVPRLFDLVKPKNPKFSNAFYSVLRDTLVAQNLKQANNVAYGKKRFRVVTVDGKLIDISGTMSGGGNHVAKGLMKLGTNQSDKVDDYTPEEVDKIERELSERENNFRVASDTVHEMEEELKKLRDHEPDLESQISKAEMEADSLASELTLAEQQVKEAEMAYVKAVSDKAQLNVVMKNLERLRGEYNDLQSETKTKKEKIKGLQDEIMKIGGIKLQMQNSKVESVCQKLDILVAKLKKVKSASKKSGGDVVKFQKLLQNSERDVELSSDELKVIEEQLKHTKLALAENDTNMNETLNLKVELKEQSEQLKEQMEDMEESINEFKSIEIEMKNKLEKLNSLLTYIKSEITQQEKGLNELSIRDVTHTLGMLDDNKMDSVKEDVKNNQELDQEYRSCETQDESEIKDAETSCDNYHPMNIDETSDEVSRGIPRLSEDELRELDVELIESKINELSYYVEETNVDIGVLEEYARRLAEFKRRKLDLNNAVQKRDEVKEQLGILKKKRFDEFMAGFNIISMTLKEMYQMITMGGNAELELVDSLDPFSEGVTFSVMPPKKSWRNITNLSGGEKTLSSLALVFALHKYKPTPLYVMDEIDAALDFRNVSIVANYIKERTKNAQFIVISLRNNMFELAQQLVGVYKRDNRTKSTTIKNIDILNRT
Test: high-speed atomic force microscopy (HS-AFM); 1 nM purified condensin holo-complex on bare mica in 40 mM Tris-HCl pH7.5, 125 mM KCl, 10 mM MgCl2, 1 mM DTT, 4 mM ATP; room temperature; 150 ms/frame; 36 molecules observed
Settings: both partners purified

binding result: binds
B1: Smc2 (natural protein, S. cerevisiae (budding yeast), UniProt P38989 1-1170, looked up)
chain: MKVEELIIDGFKSYATRTVITDWDPQFNAITGLNGSGKSNILDAICFVLGIASMSTVRASSLQDLIYKRGQAGVTKASVTIVFDNTDKSNSPIGFTNSPQISVTRQVVLGGTSKYLINGHRAPQQSVLQLFQSVQLNINNPNFLIMQGKITKVLNMKPSEILSLIEEAAGTKMFEDRREKAERTMSKKETKLQENRTLLTEEIEPKLEKLRNEKRMFLEFQSTQTDLEKTERIVVSYEYYNIKHKHTSIRETLENGETRMKMLNEFVKKTSEEIDSLNEDVEEIKLQKEKELHKEGTISKLENKENGLLNEISRLKTSLSIKVENLNDTTEKSKALESEIASSSAKLIEKKSAYANTEKDYKMVQEQLSKQRDLYKRKEELVSTLTTGISSTGAADGGYNAQLAKAKTELNEVSLAIKKSSMKMELLKKELLTIEPKLKEATKDNELNVKHVKQCQETCDKLRARLVEYGFDPSRIKDLKQREDKLKSHYYQTCKNSEYLKRRVTNLEFNYTKPYPNFEASFVHGVVGQLFQIDNDNIRYATALQTCAGGRLFNVVVQDSQTATQLLERGRLRKRVTIIPLDKIYTRPISSQVLDLAKKIAPGKVELAINLIRFDESITKAMEFIFGNSLICEDPETAKKITFHPKIRARSITLQGDVYDPEGTLSGGSRNTSESLLVDIQKYNQIQKQIETIQADLNHVTEELQTQYATSQKTKTIQSDLNLSLHKLDLAKRNLDANPSSQIIARNEEILRDIGECENEIKTKQMSLKKCQEEVSTIEKDMKEYDSDKGSKLNELKKELKLLAKELEEQESESERKYDLFQNLELETEQLSSELDSNKTLLHNHLKSIESLKLENSDLEGKIRGVEDDLVTVQTELNEEKKRLMDIDDELNELETLIKKKQDEKKSSELELQKLVHDLNKYKSNTNNMEKIIEDLRQKHEFLEDFDLVRNIVKQNEGIDLDTYRERSKQLNEKFQELRKKVNPNIMNMIENVEKKEAALKTMIKTIEKDKMKIQETISKLNEYKRETLVKTWEKVTLDFGNIFADLLPNSFAKLVPCEGKDVTQGLEVKVKLGNIWKESLIELSGGQRSLIALSLIMALLQFRPAPMYILDEVDAALDLSHTQNIGHLIKTRFKGSQFIVVSLKEGMFANANRVFRTRFQDGTSVVSIM
notes: Smc2, subunit of the budding yeast condensin complex; The holo-complex was purified over HisTrap and Strep-Tactin; also called condensin subunit Smc2
